Source: paper PMC8956657 (2022)
Where no end group is shown, it is not given here.

Columns and labels:
[1] = molecular target: IMPα5 lacking the IBB domain (residues 73-538) (UniProt P52294 73-538); assay: FP
[2] = molecular target: IMPα2 lacking the IBB domain (residues 70-529) (UniProt P52293 70-529); assay: FP

Sequence of IMPα5 lacking the IBB domain (residues 73-538) (P52294 73-538): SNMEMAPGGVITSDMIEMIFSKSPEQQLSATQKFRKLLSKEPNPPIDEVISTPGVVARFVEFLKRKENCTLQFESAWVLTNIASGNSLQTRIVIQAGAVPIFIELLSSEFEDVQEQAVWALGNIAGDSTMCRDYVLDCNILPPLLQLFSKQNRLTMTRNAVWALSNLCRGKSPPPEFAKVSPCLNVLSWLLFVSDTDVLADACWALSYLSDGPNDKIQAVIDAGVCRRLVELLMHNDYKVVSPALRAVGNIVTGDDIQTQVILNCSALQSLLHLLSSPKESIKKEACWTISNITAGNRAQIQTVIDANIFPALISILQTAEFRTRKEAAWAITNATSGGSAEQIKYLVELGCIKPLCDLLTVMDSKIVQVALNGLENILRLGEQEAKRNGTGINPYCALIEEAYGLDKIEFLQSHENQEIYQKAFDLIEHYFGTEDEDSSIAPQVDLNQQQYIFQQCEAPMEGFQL

## RKARKRSHSPTKKLRYVKRRF (also: FITC-tagged) [FITC-tagged MERS-CoV ORF4b NLS peptide (residues 19-39), wild type]
[1]
  Kd: 9.6 nM
[2]
  Kd: 11.3 nM
